Experimental data taken from article PMC7340788, “Structure of the yeast Swi/Snf complex in a nucleosome free state” (Nature Communications, 2020).

T1: Swi1 (S. cerevisiae, UniProt P09547 1-1314)
T1 construct: Swi1, subunit of the S. cerevisiae Swi/Snf complex; endogenous protein; Only part of the chain is modelled (C-terminus with seven ARM repeats, α1, β1); For cryo-EM the complex was cross-linked with 1 mM BS3; source: endogenous, S. cerevisiae; purified as part of the Swi/Snf complex through Snf6-3Flag (ANTI-FLAG M2 resin, Superose 6)
T1 sequence (looked up): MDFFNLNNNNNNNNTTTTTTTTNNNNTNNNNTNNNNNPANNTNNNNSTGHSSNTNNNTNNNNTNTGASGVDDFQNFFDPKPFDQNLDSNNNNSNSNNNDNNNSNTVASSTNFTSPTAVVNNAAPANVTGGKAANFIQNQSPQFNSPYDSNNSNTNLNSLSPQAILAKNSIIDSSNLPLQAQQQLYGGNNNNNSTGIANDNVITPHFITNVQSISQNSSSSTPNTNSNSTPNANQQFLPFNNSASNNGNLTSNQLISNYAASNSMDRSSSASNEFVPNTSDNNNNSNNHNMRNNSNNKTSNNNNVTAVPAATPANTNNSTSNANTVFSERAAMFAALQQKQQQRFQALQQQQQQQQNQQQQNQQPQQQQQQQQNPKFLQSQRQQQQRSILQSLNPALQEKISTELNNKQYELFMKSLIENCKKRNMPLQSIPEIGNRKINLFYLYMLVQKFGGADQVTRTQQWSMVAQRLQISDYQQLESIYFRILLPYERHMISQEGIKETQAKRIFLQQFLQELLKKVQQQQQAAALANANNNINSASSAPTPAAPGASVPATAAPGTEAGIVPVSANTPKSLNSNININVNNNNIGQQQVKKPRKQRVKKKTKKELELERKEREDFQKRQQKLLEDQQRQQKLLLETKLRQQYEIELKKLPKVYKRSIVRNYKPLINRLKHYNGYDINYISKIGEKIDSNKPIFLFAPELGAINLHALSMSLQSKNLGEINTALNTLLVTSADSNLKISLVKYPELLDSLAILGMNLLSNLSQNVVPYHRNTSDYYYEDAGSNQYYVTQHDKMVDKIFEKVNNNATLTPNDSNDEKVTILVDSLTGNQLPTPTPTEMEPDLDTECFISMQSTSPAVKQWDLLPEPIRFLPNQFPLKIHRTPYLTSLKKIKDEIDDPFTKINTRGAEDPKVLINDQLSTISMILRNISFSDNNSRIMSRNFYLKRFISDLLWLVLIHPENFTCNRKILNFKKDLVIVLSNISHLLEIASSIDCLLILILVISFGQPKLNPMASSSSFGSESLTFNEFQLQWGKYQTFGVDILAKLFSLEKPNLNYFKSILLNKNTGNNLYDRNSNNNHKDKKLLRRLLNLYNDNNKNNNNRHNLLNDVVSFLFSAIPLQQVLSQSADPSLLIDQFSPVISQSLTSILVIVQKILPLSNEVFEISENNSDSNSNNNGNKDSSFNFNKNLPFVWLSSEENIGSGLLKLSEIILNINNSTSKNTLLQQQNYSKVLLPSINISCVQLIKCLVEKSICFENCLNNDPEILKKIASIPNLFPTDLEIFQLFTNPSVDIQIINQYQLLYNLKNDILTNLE

B1: Swp82 (natural protein, S. cerevisiae, UniProt P43554 1-623, looked up)
chain: MLGEDEGNTVLEKGNNPSVKQGEVGAVFIVPKILIREHERVILKQILQILDQDELVQPPLDKFPYKKLELPKYIDELKTRDATNTSYKMIQLDAYGEKKVGSNGELFGGRHYLFNTFTFTAHMGVLLVLLQDVIKVLYQSNATHDEDEFIVQHDQILVMETSEEQTKFLAKNGVIPEESKGSFKYITARSAFVEFGASVIAGGQRIVDDYWESLAKKQNLSSHQRVFKLSTNLISKISLLRPSFQNNRISNANEISANTNNTCTISTSKFESQYPIVTEQPSAEIREAYIENFAKGEHISAIVPGQSISGTLELSAQFRVPRYHSKNSFQQALQMKAMDIPIGRHEELLAQYESQAPDGSASISLPNHIPSVNPSNKPIKRMLSSILDINVSSSKNKKSEENEMIKPMNKGQHKNNTSLNINGWKFESLPLKSAENSGKQQYYRGLPLYEKNTLLERLKQLTPNEIKELEHLHDAVFVNTGLQNVRKVRTKKWKKYWQYKAGIPIGLKRSQLDEFKNKYLKDVLAQTSVTTNFNEITNTDETITTKRVPNPNFLGNCNIKDFKPPYIYSHVNKVPQNVAGDKTAVKLDTEVKNTNANPVVATDPVAAKPDNLANFSNEVAMNN
notes: Swp82, subunit of the S. cerevisiae Swi/Snf complex; endogenous protein; For cryo-EM the complex was cross-linked with 1 mM BS3; source: endogenous, S. cerevisiae; purified as part of the Swi/Snf complex through Snf6-3Flag (ANTI-FLAG M2 resin, Superose 6)
B2: Swi3 (natural protein, S. cerevisiae, UniProt P32591 1-825, looked up)
chain: MENTLGEGSTVNASVDVDQHGNDNNSDSNANAAVAGVANTDTAGEESQQQDESLKDEATVPNTRDAESEAITVTAKQQPTMQANKLDSQETPSTEESRAQNVFGQDNEDSDNLFGETESSVSNNEANTPSIPTNPVDNENNKPAIKEDSTIQDSNGDVKNMEDVKIQKEEEPENNTVIEGVKEESQPDENTKEMDEVEEDDEDDDQPMISPDNSIFGDTKSESKQLGNTSSVANTPSEIPDAHKAEQEDIIEKTESVDKKVDSGEERNEQEREIMNDHSKSANPKKTTITRVEPETFEIPQAHEIVIPSYSKWFNLEKIHSIEVQSLPEFFTNRIPSKTPEVYMRYRNFMVNSYRLNPNEYFSVTTARRNVSGDAAALFRLHKFLTKWGLINYQVDSKLLPKNIEPPLTSQYSTRHDAPRGLFPFESYKPSVQLPDMAKLKKMMNTSDSESTLYKYLKESKRKYDEITHPPSTTDDENGDKNDNGGKMNNEVSTSTSMTGDANLLEEGETSRPLKKVKILEQIDENWSKEDLQKLLKGIQEFGADWYKVAKNVGNKSPEQCILRFLQLPIEDKFLYGDGNGKGDNDNGLGPLKYAPHLPFSKSENPVLSTIAFLVGLVNPKTVQSMTQRAIQSAESIKSQKEEISDQKPIEHIKEGSEIAISSLGYRSHIFATNEERQMNFLTNELIRLQMEKLDAKLNHLKKLEKFMELERKTLERQQENLLIQRLNFNQNSSKIVNVLSKCLNLISDSNINNSSVAEKEEIRSQIDHFKSMLSKPETLSIGKNPFNKPNIETGENHNGQSISNENDVKPISIEAPQFYRYWSA
notes: Swi3, subunit of the S. cerevisiae Swi/Snf complex; endogenous protein; two copies (chains A and B) in the model; also called Swi3A; Swi3B; source: endogenous, S. cerevisiae; purified as part of the Swi/Snf complex through Snf6-3Flag (ANTI-FLAG M2 resin, Superose 6)

Assays:
Assay in all cases: cryo-EM structure; endogenous Swi/Snf complex purified as a whole through Snf6-3Flag, nucleosome-free, cross-linked with 1 mM BS3, 20 mM HEPES pH 7.4, 350 mM NaCl; 4.1 Å average, 2.9 Å for the base module
Swi3 = target: B2; settings: both partners purified
Snf5 = target: T2, Snf5 (S. cerevisiae, UniProt P18480 1-905); settings: both partners purified
T2 construct: Snf5, subunit of the S. cerevisiae Swi/Snf complex; endogenous protein; For cryo-EM the complex was cross-linked with 1 mM BS3; source: endogenous, S. cerevisiae; purified as part of the Swi/Snf complex through Snf6-3Flag (ANTI-FLAG M2 resin, Superose 6)
T2 sequence (P18480 whole entry): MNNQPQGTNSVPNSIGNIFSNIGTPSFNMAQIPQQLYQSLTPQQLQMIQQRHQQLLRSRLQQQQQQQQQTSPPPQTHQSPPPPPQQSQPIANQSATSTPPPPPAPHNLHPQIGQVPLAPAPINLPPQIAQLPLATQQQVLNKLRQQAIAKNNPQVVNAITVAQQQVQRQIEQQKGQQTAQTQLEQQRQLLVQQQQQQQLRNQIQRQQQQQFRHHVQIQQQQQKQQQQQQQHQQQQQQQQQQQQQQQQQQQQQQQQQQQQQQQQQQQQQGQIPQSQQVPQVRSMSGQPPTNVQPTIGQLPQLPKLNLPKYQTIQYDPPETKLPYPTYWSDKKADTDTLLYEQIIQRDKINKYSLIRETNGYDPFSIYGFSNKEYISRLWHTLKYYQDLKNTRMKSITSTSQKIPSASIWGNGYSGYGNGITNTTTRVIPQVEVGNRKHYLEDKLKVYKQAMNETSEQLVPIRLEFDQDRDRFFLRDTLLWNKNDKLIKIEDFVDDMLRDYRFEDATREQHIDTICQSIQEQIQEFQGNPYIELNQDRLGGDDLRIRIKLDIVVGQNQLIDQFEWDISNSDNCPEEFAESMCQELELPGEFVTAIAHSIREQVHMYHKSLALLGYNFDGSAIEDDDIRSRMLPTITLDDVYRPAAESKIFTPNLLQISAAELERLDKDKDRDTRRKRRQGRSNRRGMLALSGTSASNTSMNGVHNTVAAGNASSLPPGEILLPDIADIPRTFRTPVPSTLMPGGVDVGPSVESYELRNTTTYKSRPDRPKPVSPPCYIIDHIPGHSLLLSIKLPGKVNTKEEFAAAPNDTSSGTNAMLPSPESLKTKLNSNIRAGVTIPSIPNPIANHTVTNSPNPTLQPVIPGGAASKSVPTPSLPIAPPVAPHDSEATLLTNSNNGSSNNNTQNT

Snf2 = target: T3, Snf2 (S. cerevisiae, UniProt P22082 1-1703); settings: both partners purified
T3 construct: Snf2, ATPase-containing subunit of the S. cerevisiae Swi/Snf complex; endogenous protein; Only the preHSA domain and the HSA helix are seen in the map; the ATPase domain is absent from the structure; For cryo-EM the complex was cross-linked with 1 mM BS3; source: endogenous, S. cerevisiae; purified as part of the Swi/Snf complex through Snf6-3Flag (ANTI-FLAG M2 resin, Superose 6)
T3 sequence (P22082 whole entry, the tested form may be a part): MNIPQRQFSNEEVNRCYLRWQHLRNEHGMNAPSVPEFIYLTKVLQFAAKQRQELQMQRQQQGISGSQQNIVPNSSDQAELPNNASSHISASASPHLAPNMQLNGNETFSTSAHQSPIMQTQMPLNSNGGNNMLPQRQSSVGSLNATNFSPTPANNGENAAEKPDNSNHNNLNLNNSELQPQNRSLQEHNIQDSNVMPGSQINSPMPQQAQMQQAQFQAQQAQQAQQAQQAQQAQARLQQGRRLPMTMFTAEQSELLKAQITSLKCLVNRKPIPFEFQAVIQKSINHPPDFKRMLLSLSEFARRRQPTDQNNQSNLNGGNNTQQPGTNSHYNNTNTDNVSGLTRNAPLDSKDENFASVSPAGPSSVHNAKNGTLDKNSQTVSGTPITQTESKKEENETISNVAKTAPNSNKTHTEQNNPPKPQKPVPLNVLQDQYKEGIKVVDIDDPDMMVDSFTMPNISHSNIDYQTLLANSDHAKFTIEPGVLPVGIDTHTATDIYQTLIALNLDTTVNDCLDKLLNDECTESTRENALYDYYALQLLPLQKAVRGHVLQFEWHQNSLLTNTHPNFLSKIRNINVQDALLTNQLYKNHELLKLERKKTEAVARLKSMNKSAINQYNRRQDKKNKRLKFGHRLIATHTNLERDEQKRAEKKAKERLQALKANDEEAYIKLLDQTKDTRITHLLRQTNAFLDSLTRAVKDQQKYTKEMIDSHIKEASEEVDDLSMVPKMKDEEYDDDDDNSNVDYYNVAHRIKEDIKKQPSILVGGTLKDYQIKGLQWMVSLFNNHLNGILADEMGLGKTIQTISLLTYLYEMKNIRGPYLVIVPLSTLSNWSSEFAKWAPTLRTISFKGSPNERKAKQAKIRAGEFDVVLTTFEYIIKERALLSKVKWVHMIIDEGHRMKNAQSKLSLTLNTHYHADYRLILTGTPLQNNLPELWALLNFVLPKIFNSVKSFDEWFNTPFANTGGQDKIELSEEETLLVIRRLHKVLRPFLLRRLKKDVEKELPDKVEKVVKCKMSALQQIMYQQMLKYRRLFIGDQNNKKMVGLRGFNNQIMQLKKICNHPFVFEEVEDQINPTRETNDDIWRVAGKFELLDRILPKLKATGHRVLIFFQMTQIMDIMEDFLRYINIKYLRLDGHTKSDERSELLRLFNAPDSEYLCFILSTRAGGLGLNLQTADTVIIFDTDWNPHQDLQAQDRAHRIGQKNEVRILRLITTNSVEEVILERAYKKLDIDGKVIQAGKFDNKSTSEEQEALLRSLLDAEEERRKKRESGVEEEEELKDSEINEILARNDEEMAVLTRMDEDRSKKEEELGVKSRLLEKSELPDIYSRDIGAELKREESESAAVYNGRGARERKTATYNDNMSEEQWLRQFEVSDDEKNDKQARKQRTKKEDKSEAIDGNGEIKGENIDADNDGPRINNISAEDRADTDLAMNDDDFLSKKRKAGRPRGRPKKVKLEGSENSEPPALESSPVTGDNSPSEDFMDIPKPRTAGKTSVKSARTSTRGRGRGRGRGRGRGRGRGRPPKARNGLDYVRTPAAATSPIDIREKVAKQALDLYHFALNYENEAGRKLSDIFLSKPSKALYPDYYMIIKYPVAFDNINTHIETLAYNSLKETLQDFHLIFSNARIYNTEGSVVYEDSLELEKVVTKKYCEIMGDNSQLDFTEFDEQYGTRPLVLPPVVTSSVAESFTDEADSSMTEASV

Swi1 = target: T1, Swi1; settings: both partners purified
[1] = target: the molecule itself

Binder	binding result (Swi3)	binding result (Snf5)	binding result (Snf2)	binding result (Swi1)	stoichiometry N [1]
B1	binds	binds	binds	–	–
B2	–	binds	binds	binds	2
